From patent publication US20230312753A1 (IMMUNORIZON, published 2023)
Where a chain is given by its changes, count along the chain named.

Key:
[1] = molecular target: T1, 5T4 on cells (NCI-H226 endogenous; CHO over-expressing 5T4) (UniProt Q13641 32-420, limits assumed); experiment: FACS on NCI-H226 cells, endogenous 5T4 (FIG. 45B)
T1 construct: whole, on cells
T1 sequence (looked up): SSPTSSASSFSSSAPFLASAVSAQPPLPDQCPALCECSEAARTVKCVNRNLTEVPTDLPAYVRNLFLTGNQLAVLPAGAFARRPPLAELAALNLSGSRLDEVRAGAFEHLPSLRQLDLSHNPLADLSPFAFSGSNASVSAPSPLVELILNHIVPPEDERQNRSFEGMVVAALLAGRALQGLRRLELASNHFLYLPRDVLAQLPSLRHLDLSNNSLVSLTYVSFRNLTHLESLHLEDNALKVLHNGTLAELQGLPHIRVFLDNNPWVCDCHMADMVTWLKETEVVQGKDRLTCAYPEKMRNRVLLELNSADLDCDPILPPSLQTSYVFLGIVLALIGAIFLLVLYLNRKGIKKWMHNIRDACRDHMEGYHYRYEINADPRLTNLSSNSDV
Procedure: (§1) Suspension cultured cells was harvested directly, and adherent cell were digested using TrypLE Express Enzyme (cat: 12604-013, supplier Life technologies). Centrifuge at 1000 rpm for 5 min and discard the supernatant. Cells are suspended at a concentration of 2×10⁶/mL in FACS buffer (2% FBS in PBS) and add 100 µL/well of cell suspension to the plate (cat #3799, supplier Corning). Centrifuging the plates at 2000 rpm for 5 min and discard the supernatant. Re-suspend the cells in 100 µL/well of Tribody set antibodies (400 nM start, 4-fold dilution, 8 point including 0 point) and incubate the plate for 60 min at 4° C. Centrifuge the plate at 2000 rpm, 4° C. for 5 min and discard supernatant. Then wash the cells 3 times with 170 µL FACS buffer. Re-suspend the cells at 100 µL/well with secondary antibody (goat anti-human Ig Fab-FITC, Cat # 2085-02, Southern biotech) with 1:400 dilution and incubate the plate for 30 min at 4° C. in dark. Centrifuge the plate at 2000 rpm, 4° C. for 5 min and discard supernatant. […] The fluorescence intensity of the staining was measured using flow cytometer (BD, FACSVerse). The geometric mean fluorescence intensity (GMFI; median fluorescence intensity (MFI)) of set antibodies staining was calculated (BD FACSuite software). Dose-response curves were generated and EC50s for thetrispecific variants binding were calculated using GraphPad Prism software.

[2] = molecular target: T2, h5T4-His (recombinant human 5T4) (human, UniProt Q13641 32-355, limits assumed); experiment: ELISA on coated h5T4-His (FIG. 43B)
T2 construct: Bought protein; also called recombinant 5T4
T2 sequence (looked up): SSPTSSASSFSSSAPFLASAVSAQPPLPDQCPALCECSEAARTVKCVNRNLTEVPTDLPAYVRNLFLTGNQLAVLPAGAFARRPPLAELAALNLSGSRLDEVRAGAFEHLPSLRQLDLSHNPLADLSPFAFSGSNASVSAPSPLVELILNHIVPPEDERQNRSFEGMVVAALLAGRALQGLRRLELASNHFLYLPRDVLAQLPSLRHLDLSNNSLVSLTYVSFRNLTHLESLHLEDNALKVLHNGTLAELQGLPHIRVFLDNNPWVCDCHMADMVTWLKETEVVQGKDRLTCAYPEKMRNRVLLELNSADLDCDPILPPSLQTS
Procedure: (§2) Methods: ELISA binding of Tribody/ProTribody antibody constructs to antigens: Dilute target protein (hCD3epsilon-His (cat # 10977-H08S, supplier Sino Biological); h5T4-His (cat# 19845-H08H, supplier Sino Biological); NKG2A-CD94-ECD-hFc, Lot:20200724002, provided by CP; or NKG2D-ECD-hFc, Lot: 20200413002, provided by CP) into PBS with final concentration of 0.01 µg/mL for hCD3epsilon-His, 0.3 µg/mL for h5T4-His, 1 µg/mL for NKG2A-CD94-ECD-hFc and 0.7 µg/mL for hNKG2D-ECD-hFc respectively and coat 100 µL/well on ELISA plate (cat: 9018, supplier Corning) respectively. Incubate O/N, 4° C. The plates were blocked with 250 µL 1% BSA in PBST for 1 hr at 37° C.Wash 4 times with PBST. All the washes are done using Biotek (Elx 405). All the Tribody set antibodies were diluted to 400 nM and make 4-fold serially dilutions (12 points, including 0 point). Add 100 µL/well diluted antibody constructs solution to plate, incubate for 1 hr at 37° C.Wash 4 times with PBST. Add 100 µL/well anti-human kappa light chain-HRP (1:10000), incubate for 0.5 hr at 37° C. Wash 4 times with PBST. 100 µL/well of TMB substrate was added and incubated at room temperature for 5 min. 100 µL/well of 1N HCl to terminate reaction. Plates were read using ELISA plate reader at 450 nm wavelength (instrunet SpectraMax M5e). Data Analysis was performed using Graphpad prism 5 software by using nonlinear regression (curve fit): log (agonist) vs. response, agonist is antibody concentration (nM) and response is OD value.

NKG2A-CD94-ECD-hFc = molecular target: T3, NKG2A-CD94-ECD-hFc (human, UniProt P26715 94-233; Q13241 32-179, limits assumed); experiment: ELISA on coated NKG2A-CD94-ECD-hFc (FIG. 43C)
T3 construct: extracellular domain; Lot 20200724002, 'provided by CP'; the two-chain layout here is only the reading of the name; also called human NKG2A (recombinant); NKG2A antigen; not shown: human Fc (hFc)
Procedure: as §2

[3] = molecular target: T4, NKG2A/CD94 on CHO cells (CHOK1-NKG2A-CD94) (human, UniProt P26715 1-233; Q13241 1-179, limits assumed); experiment: competitive FACS receptor-ligand blocking assay on CHOK1-NKG2A-CD94 cells, labelled ligand HLA-E PE (FIG. 49)
T4 construct: whole, on cells; also called CHO cells over-expressing NKG2A/CD94; CHO cell line over expressing ectopic NKG2A

[4] = molecular target: T5, NKG2A on NK92 cells (endogenous) (UniProt P26715 1-233, limits assumed); experiment: FACS on NK92 cells, endogenous NKG2A (FIG. 45C)
T5 construct: whole, on cells
Procedure: as §1

[5] = molecular target: T1, 5T4 on cells (NCI-H226 endogenous; CHO …); experiment: FACS on CHO cells over-expressing ectopic 5T4 (FIG. 45D)
Procedure: Then wash the cells 3 times with 170 µL FACS buffer. Re-suspend the cells at 100 µL/well with secondary antibody (goat anti-human Ig Fab-FITC, Cat # 2085-02, Southern biotech) with 1:400 dilution and incubate the plate for 30 min at 4° C. in dark. Centrifuge the plate at 2000 rpm, 4° C. for 5 min and discard supernatant. Then wash the cells 3 times with FACS buffer and analyze the sample with FACS verse. The fluorescence intensity of the staining was measured using flow cytometer (BD, FACSVerse). The geometric mean fluorescence intensity (GMFI; median fluorescence intensity (MFI)) of set antibodies staining was calculated (BD FACSuite software). Dose-response curves were generated and EC50s for thetrispecific variants binding were calculated using GraphPad Prism software.
Results: The expressed trispecific constructs were analyzed for their binding to cells expressing endogenous CD3ε, 5T4 and NKG2A/NKG2D. […] (FIG. 45F).

[6] = molecular target: T4, NKG2A/CD94 on CHO cells …; experiment: FACS on CHO cells over-expressing ectopic NKG2A (NKG2A/CD94 by the legend) (FIG. 45E)
Procedure: as §1

T4 sequence (P26715 whole entry, chain 1 of 2): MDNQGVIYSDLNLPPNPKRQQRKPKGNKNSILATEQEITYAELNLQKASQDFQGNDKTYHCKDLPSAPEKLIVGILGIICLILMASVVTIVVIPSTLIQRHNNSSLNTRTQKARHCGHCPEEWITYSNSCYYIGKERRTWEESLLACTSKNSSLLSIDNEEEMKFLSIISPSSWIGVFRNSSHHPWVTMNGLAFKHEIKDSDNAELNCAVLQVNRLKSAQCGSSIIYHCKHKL
T4 sequence (Q13241 whole entry, chain 2 of 2): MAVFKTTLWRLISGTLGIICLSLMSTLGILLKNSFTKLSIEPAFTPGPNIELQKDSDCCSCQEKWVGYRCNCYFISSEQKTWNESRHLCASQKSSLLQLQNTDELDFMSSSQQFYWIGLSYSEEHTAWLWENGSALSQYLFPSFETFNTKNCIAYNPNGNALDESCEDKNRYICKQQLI
T3 sequence (P26715 94-233 limits assumed, chain 1 of 2): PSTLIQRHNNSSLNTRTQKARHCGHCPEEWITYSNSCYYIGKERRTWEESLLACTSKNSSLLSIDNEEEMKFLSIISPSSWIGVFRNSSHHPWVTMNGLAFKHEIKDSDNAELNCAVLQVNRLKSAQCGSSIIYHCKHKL
T3 sequence (Q13241 32-179 limits assumed, chain 2 of 2): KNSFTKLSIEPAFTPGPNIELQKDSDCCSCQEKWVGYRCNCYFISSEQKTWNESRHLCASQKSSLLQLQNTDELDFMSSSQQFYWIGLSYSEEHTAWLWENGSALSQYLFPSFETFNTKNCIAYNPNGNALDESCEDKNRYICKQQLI
T5 sequence (P26715 whole entry): as the sequence (P26715 whole entry, chain 1 of 2) above

B1: IM-1063 variant (other)
heavy: GGSGGSEVQLVESGGGLVQPGGSLRLSCAASGFTFNTYAMNWVRQAPGKGLEWVARIRSKYNNYATYYADSVKDRFTISRDDSKNTLYLQMNSLRAEDTAVYYCVRHGNFGNSYVSWFAYWGQGTMVTVSSASTKGPSVFPLAPSSKSTSGGTAALGCLVKDYFPEPVTVSWNSGALTSGVHTFPAVLQSSGLYSLSSVVTVPSSSLGTQTYICNVNHKPSNTKVDKRVEPKSCPPCGGGGSQVQLVQSGAEVKKPGASVKVSCKASGYTFTSYWMNWVRQAPGQGLEWMGRIDPYDSETHYAQKLQGRVTMTTDTSTSTAYMELRSLRSDDTAVYYCARGGYDFDVGTLYWFFDVWGQGTTVTVSSGGGGSGGGGSGGGGSGGGGSDIQMTQSPSSLSASVGDRVTITCRASENIYSYLAWYQQKPGKAPKLLIYNAKTLAEGVPSRFSGSGSGTDFTLTISSLQPEDFATYYCQHHYGTPRTFGGGTKVEIK
light: GGSGGSQAVVTQEPSLTVSPGGTVTLTCRSSTGAVTTSNYANWVQQKPGQAPRGLIGGTNKRAPGTPARFSGSLLGGKAALTLSGVQPEDEAEYYCALWYSNLWVFGGGTKLTVLGQPKAAPSVTLFPPSSEELQANKATLVCLISDFYPGAVTVAWKADSSPVKAGVETTTPSKQSNNKYAASSYLSLTPEQWKSHRSYSCQVTHEGSTVEKTVAPTECPPCSGGGSDIQMTQSPSSLSASVGDRVTITCRASQGISNYLAWFQQKPGKAPKSLIYRANRLQSGVPSRFSGSGSGTDFTLTISSLQPEDVATYYCLQYDDFPWTFGQGTKLEIKGGGGSGGGGSGGGGSGGGGSQVQLVQSGAEVKKPGASVKVSCKASGYTFTSFWMHWVRQAPGQGLEWMGRIDPNRGGTEYNEKAKSRVTMTADKSTSTAYMELSSLRSEDTAVYYCAGGNPYYPMDYWGQGTTVTVSS
notes: CD3/5T4/NKG2A Tribody variant
[1]
  EC50: 1.64 nM

B2: IM-1153 Tribody, CD3 mutant variant (other)
heavy: GGSGGSEVQLVESGGGLVQPGGSLRLSCAASGFTFNTYAMNWVRQAPGKGLEWVARIGSGGNGYATYYADSVKDRFTISRDDSKNTLYLQMNSLRAEDTAVYYCVRHGNFGASARSWFAYWGQGTMVTVSSASTKGPSVFPLAPSSKSTSGGTAALGCLVKDYFPEPVTVSWNSGALTSGVHTFPAVLQSSGLYSLSSVVTVPSSSLGTQTYICNVNHKPSNTKVDKRVEPKSCPPCGGGGSDIQMTQSPSSLSASVGDRVTITCRASENIYSYLAWYQQKPGKAPKLLIYNAKTLAEGVPSRFSGSGSGTDFTLTISSLQPEDFATYYCQHHYGTPRTFGGGTKVEIKGGGGSGGGGSGGGGSGGGGSQVQLVQSGAEVKKPGASVKVSCKASGYTFTSYWMNWVRQAPGQGLEWMGRIDPYDSETHYAQKLQGRVTMTTDTSTSTAYMELRSLRSDDTAVYYCARGGYDFDVGTLYWFFDVWGQGTTVTVSS
light: B1 light with T37R, S38G, Y40A, K61A, W99G, N102G
[2]
  EC50: 31 nM
NKG2A-CD94-ECD-hFc
  EC50: 2.1 nM
[3]
  IC50: 18 nM
[4]
  EC50: 3.7 nM
[5]
  EC50: 1.33 nM
[6]
  EC50: 3 nM
